One assay deals with CD22 (human, UniProt P20273 20-687). The experiment in a line: Biacore SPR. For orientation: SPR reads the build-up and loss of mass on a sensor chip optically.
Assay [1] deals with T1, CD19 (human, UniProt P15391 20-291).
T1 chain: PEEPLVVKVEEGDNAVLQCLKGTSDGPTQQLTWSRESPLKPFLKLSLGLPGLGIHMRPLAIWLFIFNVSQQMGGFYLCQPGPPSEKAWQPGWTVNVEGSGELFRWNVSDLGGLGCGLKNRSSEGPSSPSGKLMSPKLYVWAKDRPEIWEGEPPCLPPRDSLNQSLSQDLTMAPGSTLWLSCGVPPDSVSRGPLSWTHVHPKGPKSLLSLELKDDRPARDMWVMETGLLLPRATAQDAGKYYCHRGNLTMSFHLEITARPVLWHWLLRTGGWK
The assay can be described thus: binding kinetics.

The target in assay [2] is T1, CD19. The assay can be described thus: Biacore SPR.

One may read the Kd as the free concentration of one partner at which half of the binding sites on the other are occupied at equilibrium, for simple one-to-one binding.

B1: Humanised CD22ALAb scFv (scFv)
scFv: EVQLVESGAEVKKPGSSVKVSCKASGYTFTNYWINWVRQAPGQGLEWIGNIYPSDSFTNYNQKFKDRATLTVDKSTSTAYLELRNLRSDDTAVYYCTRDTQERSWYFDVWGQGTLVTVSSDIVMTQSPATLSVSPGERATLSCRSSQSLVHSNGNTYLHWYQQKPGQAPRLLIYKVSNRFSGVPARFSGSGSGVEFTLTISSLQSEDFAVYYCSQSTHVPWTFGQGTRLEIK
B1 showed a Kd with CD22 of 32 nM.

B2: CD19ALAb (antibody)
chain: QVQLQQSGAELVRPGSSVKISCKASGYAFSSYWMNWVKQRPGQGLEWIGQIWPGDGDTNYNGKFKGKATLTADESSSTAYMQLSSLASEDSAVYFCARRETTTVGRYYYAMDYWGQGTTVTVSSDIQLTQSPASLAVSLGQRATISCKASQSVDYDGDSYLNWYQQIPGQPPKLLIYDASNLVSGIPPRFSGSGSGTDFTLNIHPVEKVDAATYHCQQSTEDPWTFGGGTKLEIK
B2 had a Kd with CD19 [1] of 1.1 nM.

B3: Murine CD19ALAb scFv (scFv)
scFv: QVQLQQSGAELVRPGSSVKISCKASGYAFSSYWMNWVKQRPGQGLEWIGQIWPGDGDTNYNGKFKGKATLTADESSSTAYMQLSSLASEDSAVYFCARRETTTVGRYYYAMDYWGQGTTVTVSSDIQLTQSPASLAVSLGQRATISCKASQSVDYDGDSYLNWYQQIPGQPPKLLIYDASNLVSGIPPRFSGSGSGTDFTLNIHPVEKVDAATYHCQQSTEDPWTFGGGTKLEIK
On to B3, for which the Kd with CD19 [2] worked out at 1.85 nM.

B4: Murine CD22ALAb scFv (scFv)
scFv: QVQLQQPGAELVRPGASVKLSCKASGYTFTNYWINWVKQRPGQGLEWIGNIYPSDSFTNYNQKFKDKATLTVDKSSSTAYMQLSSPTSEDSAVYYCTRDTQERSWYFDVWGAGTTVTVSSDVVMTQTPLSLPVSLGDQASISCRSSQSLVHSNGNTYLHWYLQKPGQSPKLLIYKVSNRFSGVPDRFSGSGSGTDFTLKISRVEAEDLGLYFCSQSTHVPWTFGGGTKLEIK
In the assay with CD22, B4 yielded a Kd of 38 nM.

The values above are taken from patent publication US20180371054A1 (published 2018).
